From patent US20110053268A1, “METHOD FOR DIAGNOSIS OF ABNORMAL IRON METABOLISM USING ACTIVE HEPCIDIN AS INDICATOR” (priority 2006, published 2011) come the findings set out here.

Data set [1] is described as follows: Clearance of serum peptides by hemodialysis (SELDI-TOF-MS before and after hemodialysis). Format: in vivo, human. As to conditions: hemodialysis patients, serum before vs after hemodialysis.
Protocol: Serum samples were obtained from 40 hemodialysis patients before and after hemodialysis. All patients were receiving hemodialysis treatment three times a week. […] Serum samples were separated by centrifugation (3,000 rpm) and stored at −80° C. until assayed.
SELDI analysis was performed according to the manufacturer's manual, with some modifications. In brief, serum and urine samples were diluted 20-fold and 10-fold, respectively, with binding buffer (phosphate buffered saline, pH 7.4). Using a bioprocessor, 40 μl of diluted samples were applied onto different arrays of an IMAC 30-Cu chip pretreated with 100 mM copper sulfate binding buffer and the chip was incubated at room temperature for 30 min with constant horizontal shaking. For confirmation of the reproducibility, each sample was applied to two separate spots on an IMAC 30-Cu chip. Unbound proteins were removed by washing three times with binding buffer for 5 min. The arrays were rinsed twice with 400 μl of water, were air-dried, and 0.5 μl of alpha-cyano-4-hydroxy-cinnamic acid (CHCA; Ciphergen) in 50% acetonitrile and 0.5% trifluoroacetic acid was added twice onto the surface of the chip. Next, the arrays were analyzed using the Ciphergen ProteinChip® Reader PBS II. The proteins with CHCA were ionized and their molecular masses were determined by TOF analysis. The mass-to-charge ratio (m/z) of each of the proteins/peptides captured on the array surface was determined according to externally calibrated standards: Arg8-vasopressin (1,084.25 Da), somatostatin (1,637.9 Da), dynorphin (2,147.5 Da), bovine insulin beta-chain (3,495.94 Da), human insulin (5,807.65 Da), bovine ubiquitin (8,564.8 Da), and bovine cytochrome C (12,230.9 Da). The mass spectra of the samples were generated using an average of 80 laser shots at a laser intensity of 180 and a detector sensitivity of 10. Synthetic hepcidin-25 (Peptide Institute Inc, Osaka) was used as a marker of 2,789 Da. […]
Another data set deals with T1, IL-6 receptor (Homo sapiens, UniProt P08887).
T1 construct: before and after tocilizumab treatment in two Castleman's disease cases; from tissue; host or cells: patients with Castleman's disease (in vivo treatment)
T1 sequence (P08887 20-468): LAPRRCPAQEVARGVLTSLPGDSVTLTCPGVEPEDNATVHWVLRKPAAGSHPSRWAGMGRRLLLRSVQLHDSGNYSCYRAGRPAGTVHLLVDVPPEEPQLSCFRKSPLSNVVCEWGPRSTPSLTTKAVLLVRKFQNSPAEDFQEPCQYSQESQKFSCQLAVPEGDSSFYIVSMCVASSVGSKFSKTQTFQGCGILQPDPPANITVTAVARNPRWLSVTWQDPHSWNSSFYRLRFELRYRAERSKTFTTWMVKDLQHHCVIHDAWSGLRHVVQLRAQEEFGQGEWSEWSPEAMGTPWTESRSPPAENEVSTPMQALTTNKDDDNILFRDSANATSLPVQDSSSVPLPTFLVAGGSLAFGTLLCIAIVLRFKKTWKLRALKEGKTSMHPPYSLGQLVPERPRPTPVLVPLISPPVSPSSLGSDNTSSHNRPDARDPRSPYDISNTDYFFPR
Kind of data set: Tocilizumab treatment of two Castleman's disease cases, serum and urine hepcidin monitored by SELDI-TOF-MS. The data set is classed as in vivo. As for the experimental part: The present inventor monitored serum and urine hepcidin before and after tocilizumab treatment in two Castleman's disease cases who began treatment with tocilizumab (registered trademark: Actemra), from 7 days before treatment to 14 days after the start of the treatment. The measurement of hepcidin was performed in the manner described in Example 1.

A short description of data set [2]: Intravenous iron administration (iron loading) in a hemodialysis patient, serial serum profiling.
Description: Serum samples were obtained from 40 hemodialysis patients before and after hemodialysis. All patients were receiving hemodialysis treatment three times a week. In addition, serum samples were collected from patients with acute pyelonephritis (two patients), pneumonia (two patients), and sepsis (two patients), as well as from 16 healthy volunteers with normal renal function. Serial samples of serum and urine obtained from two patients with acute pyelonephritis and two hemodialysis patients who had received intravenous iron administration for iron deficiency were also analyzed. Red blood cell (RBC) count, hemoglobin (Hb), hematocrit (Ht), plasma iron, and ferritin were evaluated for the clinical assessment of iron status and anemia. Serum samples were separated by centrifugation (3,000 rpm) and stored at −80° C. until assayed. Informed consent for the analysis of the protein profiling of serum and/or urine was obtained from all the participants.
For preliminary trials, multiple types of protein chips were used with various surface characteristics, which included weak cation exchange, strong anion exchange, and immobilized metal affinity capture for protein molecules that bind divalent cationic copper. The present inventor eventually chose the mobilized metal affinity capture ProteinChip® array (IMAC 30-Cu) for the entire study because of its reproducibility in detecting protein species from serum and urine. SELDI analysis was performed according to the manufacturer's manual, with some modifications. In brief, serum and urine samples were diluted 20-fold and 10-fold, respectively, with binding buffer (phosphate buffered saline, pH 7.4). Using a bioprocessor, 40 μl of diluted samples were applied onto different arrays of an IMAC 30-Cu chip pretreated with 100 mM copper sulfate binding buffer and the chip was incubated at room temperature for 30 min with constant horizontal shaking. For confirmation of the reproducibility, each sample was applied to two separate spots on an IMAC 30-Cu chip. Unbound proteins were removed by washing three times with binding buffer for 5 min. […] Next, the arrays were analyzed using the Ciphergen ProteinChip® Reader PBS II. The proteins with CHCA were ionized and their molecular masses were determined by TOF analysis. The mass-to-charge ratio (m/z) of each of the proteins/peptides captured on the array surface was determined according to externally calibrated standards: Arg8-vasopressin (1,084.25 Da), somatostatin (1,637.9 Da), dynorphin (2,147.5 Da), bovine insulin beta-chain (3,495.94 Da), human insulin (5,807.65 Da), bovine ubiquitin (8,564.8 Da), and bovine cytochrome C (12,230.9 Da). […]
[3] abbreviates: case 1, day 3 after tocilizumab.

“Also recorded” adds a separate entry of the source.

As for “hepcidin-20 (ICIFCCGCCHRSKCGMCCKT; listed as Homo sapiens) [2,192 m/z]”, the “removal rate by hemodialysis” value in data set [1] turned out to be 45±19%.
hepcidin: in the data set with IL-6 receptor (inferred from the drop in hepcidin after tocilizumab), the “half-life of hepcidin in serum” value is on record as “short”.
On to `[Fe]` [iron], for which, in data set [2] (i.v. iron for eight weeks), the “expression of the serum 2,192 m/z peak (hepcidin-20)” value is “increased” and the “intensity of the serum peak at 2,789 m/z (hepcidin-25)” value is recorded as “increased gradually”. Moreover, the “serum ferritin level after iron administration” value in data set [2] (increased from 11.3 ng/ml, 40 mg iron i.v. twice a week for eight weeks, person on hemodialysis) was determined as 273 ng/mL.
With hepcidin-25 [2,789 m/z], the “removal rate by hemodialysis” value in data set [1] is 46±23%; in data set [1] (listed as hepcidin-25), 46%.
Take tocilizumab: the “serum hepcidin-25 level” value with IL-6 receptor (both Castleman's disease cases, within a single day after the first dose of tocilizumab) was “downregulation; also recorded: drastically reduced”. In the data set with IL-6 receptor (setting [3]), the “urine level of hepcidin-20” value is given as “dramatically reduced” and the “urine level of hepcidin-25” value is reported as “dramatically reduced”. Also, in the data set with IL-6 receptor (cases 1 and 2, up to 14 days after start of treatment), the “high CRP levels, anemia, and hypoalbuminemia” value was “alleviated”. The serum ferritin level result with IL-6 receptor (cases 1 and 2 after tocilizumab) was “reduced slowly”.
